System: Equine melanoma tumors
Assay: RNA-Seq transcriptomic analysis (DEGs, EdgeR) of treated equine melanoma tumors excised 6 h and 12 h after injection
Type: in vivo, Equus caballus
Experimental: Equine melanoma tumors were used in experiments with the administration of the compound of the invention, for transcriptomic analysis at different points in time. This translational experiment was carried out at Sao Joaquim Farm (SP) and the samples were transported to the Instituto Butantan, in the city of Sao Paulo. The experiment was designed with non-treated control samples at 0 h (PBS) and the treated tumors were excised 6 h and 12 h after the injection of 1 mg of polypeptide per kg of tumor. For each time point, two tumors were removed from three different animals, producing six tumors per time point. All 18 cDNA libraries were prepared following Illumina's TruSeq® RNA Preparation Kit Kits v2 protocol, and then sequenced using HiSeq 1500 Illumina technology, generating 2×100 bp chain-specific paired readings. The raw sequencing readings had the contaminants removed with bowtie2 2.2.5, and then trimmomatic was used for quality control of the sequences, to cut and remove readings with regions of low complexity and enriched with homopolymers, poly-A/T/N tails, low quality adapter strings and bases, with the fastq-mcf 1.04.662 software. The readings were filtered if more than 90% of the readings correspond to regions of homopolymer or of low complexity. Subsequently, cut if the average quality score was less than 25 in a window size equal to 15. After cutting, all readings less than 40 bp were discarded.
Total RNA was isolated from cells grown with Trizol (Ambion, Life Technologies) and purified with a Mini RNAspin kit (GE Healthcare) according to the manufacturer's instructions, with prolonged treatment with DNase I for 1 h.
RNA quality was assessed with an Agilent 2100 Bioanalyzer RNA Pico assay. RNA was quantified using the Rib-Green Quant-iT and RNA reagent kit (Invitrogen, Life Technologies). The messenger RNA (mRNA) was isolated and used to prepare the complementary DNA (cDNA) libraries following the instructions of the TruSeq RNA Sample Prep Kit V2 (Illumina, San Diego, Calif.). Briefly, the mRNA was isolated with oligo-dT and purified. Then, the mRNA was fragmented by heating to 94° C. (4 min) in fragmentation buffer. The double-stranded cDNA was synthesized, repaired at the end and tail A. The sequencing adapters were then attached to the cDNA fragments, according to the manufacturer's protocol. The cDNA fragments were enriched after 15 rounds of PCR amplification. The quality control of the library was assessed by size distribution of the cDNA libraries measured using 2100 Bioanalyzer with DNA1000 assay (Agilent Technologies) and a StepOnePlus real-time PCR system from ABI were used to quantify the sample library before sequencing. The cDNA library was sequenced on the Illumina HiSeq 1500 System, in a final flow cell paired with Rapid in a 200 pair strategy of 2-101 bp pairing strategy.
The in-silico analysis of RNA-Seq comprises several quality steps and transcriptomic quantification algorithms that are understood in the present invention as “pipeline”. (FIG. 19). The quality check was performed using FastQC3. Hisat214 was used to align readings against the horse's reference genome (Equus caballus) (annotation version 89). To map and quantify transcriptions, the feature Counts was used, resulting in a table of genetic IDs versus samples with raw reading counts. Then, differentially expressed genes (DEGs) were calculated using the EdgeR package. Genes with less than one count per million (CPM) were filtered out. The DEGs were calculated by crossing the sample values of a) 6 h after treatment (6 h)×control (0 h); b) 12 h after treatment (12 h)×control; and also, c) 12 h×6 h. DEGs are defined as an absolute value of log 2 fold change between two groups (LFC)>1 and false discovery rate (FDR)<0.05. […]

[1] = in vivo administration, RNA-Seq
[2] = treated equine melanoma tumors, RNA-Seq

B1: Amblyomin-X: recombinant Kunitz type protein identified in a cDNA library of Amblyomma sculptum tick salivary glands (protein)
chain: MRQLAVLALVIFTGMCVESQSANSKAVCNLPKLAGDETCSNKTEIRWYYNGTACEAFIFKGCGGNDNNFDRVDDCQRLCEEQTHFHFESPKLICFKVQDYWILNDIMKKNLTGISLKSEEEDADSGEID
modifications: Amblyomin-X
notes: recombinant Kunitz type protein identified in a cDNA library of Amblyomma sculptum tick salivary glands
RNA-seq, 6 h after treatment
  logFC6, gene IFIH1: 0.851
  logFC6, gene IFIT1: 2.574
  logFC6, gene IL1B: 4.309
  logFC6, gene IL1RN: 2.823
  logFC6, gene IL13RA1: 1.408
  logFC6, gene IRF9: 1.136
  logFC6, gene ITGA1: 1.348
  logFC6, gene MYH1: −8.4
  logFC6, gene MYH3: −3.643
  logFC6, gene MYL2: −8.697
  logFC6, gene MYLPF: −5.872
  logFC6, gene NTNG1: −1.959
  logFC6, gene OAS2: 1.463
  logFC6, gene PARP9: 1.816
  logFC6, gene PER1: −1.474
  logFC6, gene PIK3R6: −1.277
  logFC6, gene RUNX1: 1.723
  logFC6, gene SAA1: 3.456
  logFC6, gene SELP: 2.596
  logFC6, gene SLPI: 3.009
  logFC6, gene SOCS3: 2.979
  logFC6, gene STAT1: 1.085
  logFC6, gene TAT: 5.292
  logFC6, gene TEAD4: 1.685
  logFC6, gene THBS1: 1.819
  logFC6, gene TLR2: 1.5586
  logFC6, gene TREM1: 5.551
RNA-seq, 12 h after treatment
  logFC12, gene ACTN1: 1.006
  logFC12, gene BCL3: 1.709
  logFC12, gene BIRC3: 0.9146
  logFC12, gene CAD: 1.028
  logFC12, gene CCL2: 3.517
  logFC12, gene CDO1: −2.408
  logFC12, gene CTSL: 1.385
  logFC12, gene CXCL6: 3.417
  logFC12, gene DDX58: 1.76
  logFC12, gene F12: 3.104
  logFC12, gene FOSL1: 4.028
  logFC12, gene FSCN1: 1.831
  logFC12, gene HMOX1: 1.117
  logFC12, gene HSPA6: 4.55
  logFC12, gene IFI35: 1.639
  logFC12, gene IFIH1: 1.823
  logFC12, gene IFIT1: 2.655
  logFC12, gene IL1B: 3.152
  logFC12, gene IL1RN: 2.805
  logFC12, gene IL13RA1: 1.28
  logFC12, gene IRF9: 1.462
  logFC12, gene ITGA1: 1.094
  logFC12, gene MYH1: −8.31
  logFC12, gene MYH3: 3.004
  logFC12, gene MYL2: −7.917
  logFC12, gene MYLPF: −5.428
  logFC12, gene NTNG1: −2.943
  logFC12, gene OAS2: 2.491
  logFC12, gene PARP9: 2.109
  logFC12, gene PER1: −1.139
  logFC12, gene PIK3R6: −1.356
  logFC12, gene RUNX1: 1.443
  logFC12, gene SAA1: 3.902
  logFC12, gene SELP: 2.395
  logFC12, gene SLPI: 3.051
  logFC12, gene SOCS3: 2.423
  logFC12, gene STAT1: 1.267
  logFC12, gene TAT: 5.521
  logFC12, gene TEAD4: 1.949
  logFC12, gene THBS1: 0.8749
  logFC12, gene TLR2: 1.839
  logFC12, gene TREM1: 5.559
e-selectin (SELE) gene, log2 fold change, 6 h after treatment vs control 0 h, RNA-Seq
  LFC SELE (6 h×0 h): 2.33
e-selectin (SELE) gene, log2 fold change, 12 h after treatment vs control 0 h, RNA-Seq
  LFC SELE (12 h×0 h): 1.78
Gene BATF3, RNA-seq, 6 hours after treatment
  logFC6 BATF3: 3.137
Gene BATF3, RNA-seq, 12 hours after treatment
  logFC12 BATF3: 2.91
Gene CAV3, RNA-seq, 6 hours after treatment
  logFC6 CAV3: −3.0363
Gene CAV3, RNA-seq, 12 hours after treatment
  logFC12 CAV3: −6.6813
Gene CCR7, RNA-seq, 6 hours after treatment
  logFC6 CCR7: 2.652
Gene CCR7, RNA-seq, 12 hours after treatment
  logFC12 CCR7: 2.359
Gene CDH15, RNA-seq, 6 hours after treatment
  logFC6 CDH15: −2.616
Gene CDH15, RNA-seq, 12 hours after treatment
  logFC12 CDH15: −1.702
Gene EIF2AK2, RNA-seq, 6 hours after treatment
  logFC6 EIF2AK2: 2.4
Gene EIF2AK2, RNA-seq, 12 hours after treatment
  logFC12 EIF2AK2: 2.959
Gene ETV6, RNA-seq, 6 hours after treatment
  logFC6 ETV6: 1.795
Gene ETV6, RNA-seq, 12 hours after treatment
  logFC12 ETV6: 1.871
Gene IL7R, RNA-seq, 6 hours after treatment
  logFC6 IL7R: 2.532
Gene IL7R, RNA-seq, 12 hours after treatment
  logFC12 IL7R: 2.227
Gene IL18RAP, RNA-seq, 6 hours after treatment
  logFC6 IL18RAP: 2.817
Gene IL18RAP, RNA-seq, 12 hours after treatment
  logFC12 IL18RAP: 2.593
Gene MYLK2, RNA-seq, 6 hours after treatment
  logFC6 MYLK2: −5.152
Gene MYLK2, RNA-seq, 12 hours after treatment
  logFC12 MYLK2: −5.672
Gene NECTIN3, RNA-seq, 6 hours after treatment
  logFC6 NECTIN3: 1.287
Gene NECTIN3, RNA-seq, 12 hours after treatment
  logFC12 NECTIN3: 1.113
Gene NLRC4, RNA-seq, 6 hours after treatment
  logFC6 NLRC4: 5.503
Gene NLRC4, RNA-seq, 12 hours after treatment
  logFC12 NLRC4: 5.687
Gene NLRP12, RNA-seq, 6 hours after treatment
  logFC6 NLRP12: 3.4
Gene NLRP12, RNA-seq, 12 hours after treatment
  logFC12 NLRP12: 2.297
Gene OAS3, RNA-seq, 6 hours after treatment
  logFC6 OAS3: 1.716
Gene OAS3, RNA-seq, 12 hours after treatment
  logFC12 OAS3: 2.112
Gene PRKCQ, RNA-seq, 6 hours after treatment
  logFC6 PRKCQ: −1.531
Gene PRKCQ, RNA-seq, 12 hours after treatment
  logFC12 PRKCQ: −3.021
[1]
  DEG modulation of ACTA1 and ACTN2: high negative regulation
  DEG modulation of ACTN1 and ACTR3: positive regulation
  DEG modulation of TUBB and TUBB6 (Tubulin family): positive regulation
[2]
  expression of Interferons (type 1 interferon, IFN alpha and IFN beta): does not lead to the detectable expression
  expression of the NOXA gene (PMAIP1): did not induce the detectable expression

Source: patent US12329806B2, “Compound for modulating rlr, tlr, oas and/or oncostatin m pathways, use thereof for preparing a medicine, composition, method for modulating said pathways and method of treatment” (Instituto Butantan, priority 2018, dated 2025)
